{"source": "paper PMC10641069", "about": "“Intra- and inter-molecular regulation by intrinsically-disordered regions governs PUF protein RNA binding” (Nature Communications, 2023)", "assay_in_all_cases": "EMSA; no LST-1; EMSA: FBF-2 in 20 mM HEPES pH 7.4, 150 mM NaCl, 0.5 mM TCEP mixed 1:1 with 5 nM final RNA in 10 mM HEPES pH 7.4, 0.01% Tween 20, 0.1 mg/ml BSA, 0.1 mg/ml yeast", "settings_in_all_cases": "protein: recombinant; tags: none (His6-SUMO removed with Ulp1); label: 3'-Cy5", "key": {"[1]": {"target": "T1, FBF-2 RBD+CT (Caenorhabditis elegans, UniProt Q09312 164-632)", "T1 sequence": "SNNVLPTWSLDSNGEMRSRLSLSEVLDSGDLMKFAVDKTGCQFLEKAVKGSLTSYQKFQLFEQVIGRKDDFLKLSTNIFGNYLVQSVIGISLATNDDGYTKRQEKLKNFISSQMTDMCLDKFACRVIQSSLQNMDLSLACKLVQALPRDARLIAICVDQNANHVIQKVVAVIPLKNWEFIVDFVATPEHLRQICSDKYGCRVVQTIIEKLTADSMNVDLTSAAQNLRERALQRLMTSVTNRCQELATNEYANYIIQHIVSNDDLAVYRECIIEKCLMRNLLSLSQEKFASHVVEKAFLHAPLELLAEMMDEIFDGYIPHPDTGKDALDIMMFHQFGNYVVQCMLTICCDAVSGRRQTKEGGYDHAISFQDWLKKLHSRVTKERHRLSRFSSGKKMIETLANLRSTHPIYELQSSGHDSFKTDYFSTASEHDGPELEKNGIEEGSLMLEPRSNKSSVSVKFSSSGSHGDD"}, "[2]": {"target": "T2, FBF-2 RBD+CT Loop6A (Caenorhabditis elegans, UniProt Q09312 164-632, E592A;D594A;E597A;E599A;E604A;E605A)", "T2 sequence": "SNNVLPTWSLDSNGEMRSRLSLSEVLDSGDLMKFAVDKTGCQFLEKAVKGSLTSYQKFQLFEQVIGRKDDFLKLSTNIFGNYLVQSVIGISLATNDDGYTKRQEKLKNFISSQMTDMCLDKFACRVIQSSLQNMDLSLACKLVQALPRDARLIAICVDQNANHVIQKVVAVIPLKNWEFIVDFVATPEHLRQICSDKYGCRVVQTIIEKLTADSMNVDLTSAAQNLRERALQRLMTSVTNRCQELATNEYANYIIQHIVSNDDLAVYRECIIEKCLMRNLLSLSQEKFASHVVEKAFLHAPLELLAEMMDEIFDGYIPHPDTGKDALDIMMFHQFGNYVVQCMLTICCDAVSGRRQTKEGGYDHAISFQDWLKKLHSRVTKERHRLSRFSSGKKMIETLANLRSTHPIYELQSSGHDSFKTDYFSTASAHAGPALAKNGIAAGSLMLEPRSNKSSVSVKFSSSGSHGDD"}, "[3]": {"target": "T3, FBF-2 RBD+CT L610A (Caenorhabditis elegans, UniProt Q09312 164-632, L610A)", "T3 sequence": "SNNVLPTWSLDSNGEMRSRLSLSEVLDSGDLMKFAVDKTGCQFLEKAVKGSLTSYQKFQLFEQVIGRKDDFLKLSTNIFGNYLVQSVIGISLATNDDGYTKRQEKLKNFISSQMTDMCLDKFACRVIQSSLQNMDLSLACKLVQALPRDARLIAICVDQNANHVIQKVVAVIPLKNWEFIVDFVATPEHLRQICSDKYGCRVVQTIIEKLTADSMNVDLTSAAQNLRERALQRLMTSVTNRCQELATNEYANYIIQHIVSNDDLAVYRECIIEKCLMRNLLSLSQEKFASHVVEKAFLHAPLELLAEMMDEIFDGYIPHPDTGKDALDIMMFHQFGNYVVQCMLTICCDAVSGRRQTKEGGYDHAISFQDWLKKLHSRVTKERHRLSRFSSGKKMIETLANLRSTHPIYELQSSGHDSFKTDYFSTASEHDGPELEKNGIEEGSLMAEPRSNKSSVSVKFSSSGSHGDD"}, "[4]": {"target": "T4, FBF-2 RBD+CT Y479A (Caenorhabditis elegans, UniProt Q09312 164-632, Y479A)", "T4 sequence": "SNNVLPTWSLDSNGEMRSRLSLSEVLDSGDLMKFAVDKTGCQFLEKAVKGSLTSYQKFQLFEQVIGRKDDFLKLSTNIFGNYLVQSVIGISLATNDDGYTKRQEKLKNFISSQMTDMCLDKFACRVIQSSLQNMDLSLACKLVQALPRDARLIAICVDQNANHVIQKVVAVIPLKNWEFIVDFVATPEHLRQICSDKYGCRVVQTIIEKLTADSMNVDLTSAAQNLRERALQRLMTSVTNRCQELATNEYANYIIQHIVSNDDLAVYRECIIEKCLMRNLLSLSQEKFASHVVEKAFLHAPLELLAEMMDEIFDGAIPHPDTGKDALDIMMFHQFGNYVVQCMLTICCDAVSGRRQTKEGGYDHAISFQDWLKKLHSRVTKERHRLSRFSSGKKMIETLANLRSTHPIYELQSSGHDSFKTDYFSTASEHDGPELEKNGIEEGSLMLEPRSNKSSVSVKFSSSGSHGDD"}}}
{"binder": "AUCAUGUGCCAUAC (ssRNA)", "note": "[gld-1 FBEa RNA (EMSA)]", "values": [{"measurement": "Kd", "setting": "[1]", "result": "334 ± 61", "unit": "nM"}, {"measurement": "Kd", "setting": "[2]", "result": "101 ± 21", "unit": "nM"}, {"measurement": "Kd", "setting": "[3]", "result": "51 ± 26", "unit": "nM"}, {"measurement": "Kd", "setting": "[4]", "result": "62 ± 14", "unit": "nM"}]}
